From patent publication US20250145729A1 (DENALI THERAPEUTICS, published 2025)
Positions count from the first letter of the chain named. Like-named read-outs stand apart in the source and are kept apart here.

T1: circularly permuted human TfR apical domain (human)
T1 construct: TfR residues 326-379 stand N-terminal to 194-296, loop 297-325 deleted; also called huTfR Apical Domain
T1 chain: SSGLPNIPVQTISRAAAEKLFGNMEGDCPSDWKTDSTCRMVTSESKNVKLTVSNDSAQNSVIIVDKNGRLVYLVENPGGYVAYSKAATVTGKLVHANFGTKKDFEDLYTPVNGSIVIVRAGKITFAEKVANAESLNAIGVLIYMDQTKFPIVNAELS

B1: 6.5.11.1 bivalent (Fc fusion)
chain: APELLGGPSVFLFPPKPKDTLMISRTPEVTCVVVDVSHEDPEVKFNWYVDGVEVHNAKTKPREEQYNSTYRVVSVLTVLHQDWLNGKEYKCKVSNKALPAPIEKTISKAKGQPREPQVYTLPPSRDELTKNQVSLTCLVKGFYPSDIAVNWFSNGQIENNYKTTPPVLDSDGSFFLYSKLTVDKSRWQQGNLFACEVMHEALHNHYTYKLLSLSPGK
notes: also called Clone 6.5.11.1 bivalent
B2: 6.5.11.5.42 bivalent (Fc fusion)
chain: B1 chain with L4A, L5A, N150Y, N154G, I157R
notes: both Fc with LALA
B3: human CD98hc (receptor)
chain: CRELPAQKWWHTGALYRIGDLQAFQGHGAGNLAGLKGRLDYLSSLKVKGLVLGPIHKNQKDDVAQTDLLQIDPNFGSKEDFDSLLQSAKKKSIRVILDLTPNYRGENSWFSTQVDTVATKVKDALEFWLQAGVDGFQVRDIENLKDASSFLAEWQNITKGFSEDRLLIAGTNSSDLQQILSLLESNKDLLLTSSYLSDSGSTGEHTKSLVTQYLNATGNRWCSWSLSQARLLTSFLPAQLLRLYQLMLFTLPGTPVFSYGDEIGLDAAALPGQPMEAPVMLWDESSFPDIPGAVSANMTVKGQSEDPGSLLSLFRRLSDQRSKERSLLHGDFHAFSAGPGLFSYIRHWDQNERFLVVLNFGDVGLSAGLQASDLPASASLPAKADLLLSTQPGREEGSPLELERLKLEPHEGLLLRFPYAA
notes: also called huCD98hc; CD98 heavy chain
B4: Clone 27: LLB2-10-8 monovalent, non-binding Fabs, LALAPG (Fc fusion)
chain 1: APEAAGGPSVFLFPPKPKDTLMISRTPEVTCVVVDVSHEDPEVKFNWYVDGVEVHNAKTKPREEQYNSTYRVVSVLTVLHQDWLNGKEYKCKVSNKALGAPIEKTISKAKGQPREPQVYTLPPSRDELTKNQVSLWCLVKGFYPSDIAVLWNSRFVLENNYKTTPPVLDSDGSFFLYSKLTVDKSRWQQGEIFACNVYHEALHNHYTFKNLALSPGK
chain 2: APEAAGGPSVFLFPPKPKDTLMISRTPEVTCVVVDVSHEDPEVKFNWYVDGVEVHNAKTKPREEQYNSTYRVVSVLTVLHQDWLNGKEYKCKVSNKALGAPIEKTISKAKGQPREPQVYTLPPSRDELTKNQVSLSCAVKGFYPSDIAVEWESNGQPENNYKTTPPVLDSDGSFFLVSKLTVDKSRWQQGNVFSCSVMHEALHNHYTQKSLSLSPGK
notes: effector negative (LALAPG)
B5: human CD98hc (receptor)
chain: B3 chain
notes: as for B3

Experiments:
[1] = target: T1, circularly permuted human TfR apical …; test: Biacore SPR, Fc-Fab fusion
[2] = target: T1, circularly permuted human TfR apical …; test: Biacore SPR, Fc-Fab fusion; bivalent, LALA
LLB2.10.8.12.5 = target: T2, LLB2.10.8.12.5 (Homo sapiens (Human), UniProt P0DOX5 233-449 = IgG part; P0DOX5 233-449 = IgG part, T366W); test: SPR (Biacore)
T2 construct: Fc parts only
How it was run: (§1)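 Surface plasmon resonance on a Biacore instrument was used to measure the binding affinity (Kd) of engineered Fc polypeptides for CD98hc. Each clone was cloned, expressed and purified as an Fc-Fab fusion bearing anti-BACE1 Fabs. Testing used either a bivalent format or a monovalent knob/hole format in which only the knob chain carried the CD98hc-binding site.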

LLB2.10.8.2.1 = target: T3, LLB2.10.8.2.1 (Homo sapiens (Human), UniProt P0DOX5 233-449 = IgG part; P0DOX5 233-449 = IgG part, T366W); test: SPR (Biacore)
T3 construct: Fc parts only
How it was run: as §1

LLB2.10.8.10.3 = target: T4, LLB2.10.8.10.3 (Homo sapiens (Human), UniProt P0DOX5 233-449 = IgG part; P0DOX5 233-449 = IgG part, T366W); test: SPR (Biacore)
T4 construct: Fc parts only
How it was run: as §1

LLB2-10-8-d3 MV = target: T5, LLB2-10-8-d3 MV (Homo sapiens (Human), UniProt P0DOX5 233-449 = IgG part; P0DOX5 233-449 = IgG part, T366W); test: SPR (Biacore)
T5 construct: Fc parts only; MV = monovalent
How it was run: as §1

LLB2.10.8.10.1 = target: T6, LLB2.10.8.10.1 (Homo sapiens (Human), UniProt P0DOX5 233-449 = IgG part; P0DOX5 233-449 = IgG part, T366W); test: SPR (Biacore)
T6 construct: Fc parts only
How it was run: as §1

LLB2.10.8.10.8 = target: T7, LLB2.10.8.10.8 (Homo sapiens (Human), UniProt P0DOX5 233-449 = IgG part; P0DOX5 233-449 = IgG part, T366W); test: SPR (Biacore)
T7 construct: Fc parts only
How it was run: as §1

[3] = target: T8, LLB2-37 (monovalent, Table A6) (Homo sapiens (Human), UniProt P0DOX5 233-449 = IgG part; P0DOX5 233-449 = IgG part, T366W); test: SPR (Biacore)
T8 construct: Fc parts only
How it was run: as §1

LLB2-10-8-d1 MV = target: T9, LLB2-10-8-d1 MV (Homo sapiens (Human), UniProt P0DOX5 233-449 = IgG part; P0DOX5 233-449 = IgG part, T366W); test: SPR (Biacore)
T9 construct: Fc parts only; MV = monovalent
How it was run: as §1

LLB2.10.8.4.12 = target: T10, LLB2.10.8.4.12 (Homo sapiens (Human), UniProt P0DOX5 233-449 = IgG part; P0DOX5 233-449 = IgG part, T366W); test: SPR (Biacore)
T10 construct: Fc parts only
How it was run: as §1

LLB2-10-6 Mono = target: T11, LLB2-10-6 Mono (Homo sapiens (Human), UniProt P0DOX5 233-449 = IgG part; P0DOX5 233-449 = IgG part, T366W); test: SPR (Biacore)
T11 construct: Fc parts only
How it was run: as §1

human CD98hc = target: B5; test: affinity as listed in study design table; method not given there
[4] = target: T12, Clone 8: LLB2-10-6 monovalent, non-binding Fabs (Homo sapiens (Human), UniProt P0DOX5 233-449 = IgG part; P0DOX5 233-449 = IgG part, T366W); test: as above
T12 construct: CD98hc site on the knob Fc only; effector positive

[5] = target: T13, Clone 13: LLB1-3-16 monovalent, non-binding Fabs (Homo sapiens (Human), UniProt P0DOX5 233-449 = IgG part; P0DOX5 233-449 = IgG part, T366W); test: as above
T13 construct: CD98hc site on the knob Fc only; effector positive

[6] = target: T12, Clone 8: LLB2-10-6 monovalent, …; test: as above; remark: listed apart in the source
[7] = target: T14, Clone 18: LLB2-37 monovalent, non-binding Fabs (Homo sapiens (Human), UniProt P0DOX5 233-449 = IgG part; P0DOX5 233-449 = IgG part, T366W); test: as above
T14 construct: CD98hc site on the knob Fc only; effector positive

[8] = target: T12, Clone 8: LLB2-10-6 monovalent, …; test: as above; remark: listed apart in the source
[9] = target: T12, Clone 8: LLB2-10-6 monovalent, …; test: as above; remark: listed apart in the source

Binder: B1
Kd [1]: 20000 to 40000 nM

Binder: B2
Kd [2]: 2000 nM

Binder: B3
Kd (LLB2.10.8.12.5): 230 nM
Kd (LLB2.10.8.2.1): 110 nM
Kd (LLB2.10.8.10.3): 43 nM
Kd (LLB2-10-8-d3 MV): 470 nM
Kd (LLB2.10.8.10.1): 54 nM
Kd (LLB2.10.8.10.8): 94 nM
Kd [3]: 390 nM
Kd (LLB2-10-8-d1 MV): 250 nM
Kd (LLB2.10.8.4.12): 15 nM
Kd (LLB2-10-6 Mono): 420 nM

Binder: B4
Kd (human CD98hc): 100 to 200 nM

Binder: B5
Kd [4]: 260 nM
Kd [5]: 32 nM
Kd [6]: 260 nM
Kd [7]: 390 nM
Kd [8]: 260 nM
Kd [9]: 230 nM
